Results on five proteins are retold here after article PMC2852398, “Metal-Free ALS Variants of Dimeric Human Cu,Zn-Superoxide Dismutase Have Enhanced Populations of Monomeric Species” (PLoS ONE, 2010).

B1: apo S134N SOD1 in the AS-SOD1 (C6A/C111S) background (enzyme)
chain: not shown
notes: human Cu,Zn superoxide dismutase (SOD1), 153-residue subunit; Apo (metal-free) form with the intra-subunit C57-C146 disulfide bond intact; source: BL21-Gold(DE3) PLysS cells, purified (anion exchange QSepharose XL and/or gel filtration Sephacryl 200HR)
B2: apo L106V SOD1 in the AS-SOD1 (C6A/C111S) background (enzyme)
chain: not shown
notes: as for B1
B3: apo A4V SOD1 in the AS-SOD1 (C6A/C111S) background (enzyme)
chain: not shown
notes: as for B1
B4: apo-AS-SOD1 (human Cu,Zn superoxide dismutase, C6A/C111S pseudo-wild-type background, metal-free) (enzyme)
chain: not shown
notes: human Cu,Zn superoxide dismutase (SOD1), 153-residue subunit; Apo (metal-free) form with the intra-subunit C57-C146 disulfide bond intact; also called WT; WT SOD1; source: BL21-Gold(DE3) PLysS cells, purified (anion exchange QSepharose XL and/or gel filtration Sephacryl 200HR)
B5: apo L38V SOD1 in the AS-SOD1 (C6A/C111S) background (enzyme)
chain: not shown
notes: as for B1

This data set deals with the molecule itself. The data set can be described thus: global analysis of urea unfolding and refolding kinetics (manual-mixing far-UV CD at 230 nm); kinetic traces at 0.25 to 8.75 M urea and 1 to 40 µM protein fit together to 2U = 2M = N2; constants in the absence of urea; step: dimer (N2) to folded monomers (2M); monomer unfolding rate fixed to that of the stable monomeric variants; apo protein; 10 mM potassium phosphate, 1 mM K2EDTA, pH 7.2, 20°C.
Broadly, the Kd is the equilibrium constant for the complex coming apart. What is called koff is the rate constant with which the complex falls apart. Low values mean slow dissociation, high ones fast dissociation. In general, kon refers to the rate constant with which the complex forms. B1 showed a Kd of 1.1 nM, a koff of 0.000222 s⁻¹ and a kon of 200000 M⁻¹ s⁻¹.
As for B2, the affinity, expressed as Kd, was 21 nM; the koff is 0.00151 s⁻¹; the kon is 73000 M⁻¹ s⁻¹.
In turn, B3 displayed a Kd of 123 nM, a koff of 0.0223 s⁻¹ and a kon of 180000 M⁻¹ s⁻¹.
B4 showed a Kd of 0.87 nM, an off-rate constant (koff) of 0.000745 s⁻¹ and a kon of 860000 M⁻¹ s⁻¹.
As to B5, the affinity, expressed as Kd, was 4.6 nM; the koff was found to be 0.000557 s⁻¹; the kon came to 120000 M⁻¹ s⁻¹.
